Measurements from paper PMC12071944, “Interaction Between Glucagon-like Peptide 1 and Its Analogs with Amyloid-β Peptide Affects Its Fibrillation and Cytotoxicity” (International Journal of Molecular Sciences, 2025).

Biological target: the molecule itself
Experiment: dynamic light scattering; 5–83 µM GLP-1(7-37); 25 °C; 25 mM Tris-HCl, 140 mM NaCl, 4.9 mM KCl, 2.5 mM CaCl2, 1 mM MgCl2, pH 7.4; degree of multimerization MWRh/MWm

B1: glucagon-like peptide 1, residues 7-37 (peptide, UniProt P01275 98-128, looked up)
chain: HAEGTFTSDVSSYLEGQAAKEFIAWLVKGRG
notes: also called GLP-1(7-37); GLP-1
  stoichiometry N: > 210
